Assay results from publication PMC9482650, “Quantitative fragmentomics allow affinity mapping of interactomes” (Nature Communications, 2022).

T1: APBA1_1, Q02410
T1 sequence (Q02410 651-752, limits assumed, looked up): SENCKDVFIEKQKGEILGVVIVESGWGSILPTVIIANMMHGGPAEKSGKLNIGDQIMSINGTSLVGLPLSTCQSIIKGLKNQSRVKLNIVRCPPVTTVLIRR

T2: APBA1_2, Q02410
T2 sequence (Q02410 742-832, limits assumed, looked up): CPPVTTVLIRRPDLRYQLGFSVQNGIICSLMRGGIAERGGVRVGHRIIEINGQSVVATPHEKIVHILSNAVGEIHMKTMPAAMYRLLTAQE

T3: DLG3_1, Q92796
T3 sequence (Q92796 125-227, limits assumed, looked up): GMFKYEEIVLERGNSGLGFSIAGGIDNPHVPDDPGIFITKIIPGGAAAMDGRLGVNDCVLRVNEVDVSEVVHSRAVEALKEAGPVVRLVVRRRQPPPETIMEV

T4: DLG3_3, Q92796
T4 sequence (Q92796 374-475, limits assumed, looked up): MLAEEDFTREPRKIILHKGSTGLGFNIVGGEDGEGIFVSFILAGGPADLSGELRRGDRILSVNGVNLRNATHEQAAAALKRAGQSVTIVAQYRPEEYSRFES

T5: GRIP1_3, Q9Y3R0
T5 sequence (Q9Y3R0 247-346, limits assumed, looked up): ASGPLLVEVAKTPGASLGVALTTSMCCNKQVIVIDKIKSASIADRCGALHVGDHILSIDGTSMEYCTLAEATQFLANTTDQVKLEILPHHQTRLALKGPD

T6: GRIP1_5, Q9Y3R0
T6 sequence (Q9Y3R0 568-668, limits assumed, looked up): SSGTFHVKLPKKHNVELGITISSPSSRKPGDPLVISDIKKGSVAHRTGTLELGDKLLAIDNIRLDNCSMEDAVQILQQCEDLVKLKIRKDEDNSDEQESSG

T7: LNX2_2, Q8N448
T7 sequence (Q8N448 334-432, limits assumed, looked up): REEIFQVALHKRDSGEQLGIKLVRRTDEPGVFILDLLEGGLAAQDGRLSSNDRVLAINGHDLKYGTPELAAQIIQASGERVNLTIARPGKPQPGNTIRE

T8: MPP2, Q14168
T8 sequence (Q14168 180-250, limits assumed, looked up): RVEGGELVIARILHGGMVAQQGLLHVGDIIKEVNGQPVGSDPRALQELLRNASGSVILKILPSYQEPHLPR

T9: NHERF3_1, Q5T2W1
T9 sequence (Q5T2W1 4-100, limits assumed, looked up): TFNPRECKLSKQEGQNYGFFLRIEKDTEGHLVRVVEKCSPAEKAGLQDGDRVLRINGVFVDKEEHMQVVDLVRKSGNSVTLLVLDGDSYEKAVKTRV

T10: RHPN1, Q8TCX5
T10 sequence (Q8TCX5 508-602, limits assumed, looked up): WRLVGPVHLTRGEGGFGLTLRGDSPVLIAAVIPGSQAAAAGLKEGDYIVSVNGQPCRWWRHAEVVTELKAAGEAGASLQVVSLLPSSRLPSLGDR

T11: SYNJ2BP, P57105
T11 sequence (P57105 8-110, limits assumed, looked up): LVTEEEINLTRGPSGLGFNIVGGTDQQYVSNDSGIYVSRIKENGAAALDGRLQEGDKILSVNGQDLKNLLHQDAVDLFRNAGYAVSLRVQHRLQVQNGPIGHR

T12: TIAM2, Q8IVF5
T12 sequence (Q8IVF5 885-986, limits assumed, looked up): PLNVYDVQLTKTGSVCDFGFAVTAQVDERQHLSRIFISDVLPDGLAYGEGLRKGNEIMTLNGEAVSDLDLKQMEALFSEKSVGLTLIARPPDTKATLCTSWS

B1: FLVCR1, Q9Y5Y0 (peptide)
chain: MLSKQSESAI
B2: ADAM22, Q9P0K1 (peptide)
chain: QSARLWETSI

target: AHNAK1, Q09666; experiment: holdup assay; set-up: key: below the threshold = too weak to quantify, mostly under pKd 3.1 to 4; conditions: plain residues with an end cap or a label only (N-terminal biotin on a linker: ado-ado)
Sequence (Q09666 4-100): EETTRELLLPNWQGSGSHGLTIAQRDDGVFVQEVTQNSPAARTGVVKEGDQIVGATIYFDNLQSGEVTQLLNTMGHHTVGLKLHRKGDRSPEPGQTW

Q: For B1, which pKd is on record?
A: below the threshold

Q: How did the pKd turn out when B2 was run?
A: below the threshold

target: T1, APBA1_1, Q02410; experiment: holdup assay; set-up: key: below the threshold = too weak to quantify, mostly under pKd 3.1 to 4; conditions: plain residues with an end cap or a label only (N-terminal biotin on a linker: ado-ado)

Q: How did the pKd turn out when B1 was run?
A: below the threshold

Q: For B2, which pKd is on record?
A: below the threshold

target: T2, APBA1_2, Q02410; experiment: holdup assay; set-up: key: below the threshold = too weak to quantify, mostly under pKd 3.1 to 4; conditions: plain residues with an end cap or a label only (N-terminal biotin on a linker: ado-ado)

Q: B1 was tested. Which pKd did it give?
A: below the threshold

Q: B2 was tested. Which pKd did it give?
A: below the threshold

target: T3, DLG3_1, Q92796; experiment: holdup assay; set-up: key: below the threshold = too weak to quantify, mostly under pKd 3.1 to 4; conditions: plain residues with an end cap or a label only (N-terminal biotin on a linker: ado-ado)

Q: Which pKd does the source give for B1 here?
A: below the threshold

Q: With B2 as the binder, how does the pKd read?
A: below the threshold

target: T4, DLG3_3, Q92796; experiment: holdup assay; set-up: key: below the threshold = too weak to quantify, mostly under pKd 3.1 to 4; conditions: plain residues with an end cap or a label only (N-terminal biotin on a linker: ado-ado)

Q: Which pKd does the source give for B1 here?
A: below the threshold

Q: Which pKd does the source give for B2 here?
A: 4.29

target: DLG4_1, P78352; experiment: holdup assay; set-up: key: below the threshold = too weak to quantify, mostly under pKd 3.1 to 4; conditions: plain residues with an end cap or a label only (N-terminal biotin on a linker: ado-ado)
Sequence (P78352 62-152): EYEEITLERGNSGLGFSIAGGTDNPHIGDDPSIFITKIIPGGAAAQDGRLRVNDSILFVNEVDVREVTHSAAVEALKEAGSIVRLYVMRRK

Q: B1 was tested. Which pKd did it give?
A: below the threshold

Q: B2 was tested. Which pKd did it give?
A: 3.92

target: FRMPD2_3, Q68DX3; experiment: holdup assay; set-up: key: below the threshold = too weak to quantify, mostly under pKd 3.1 to 4; conditions: plain residues with an end cap or a label only (N-terminal biotin on a linker: ado-ado)
Sequence (Q68DX3 1073-1166): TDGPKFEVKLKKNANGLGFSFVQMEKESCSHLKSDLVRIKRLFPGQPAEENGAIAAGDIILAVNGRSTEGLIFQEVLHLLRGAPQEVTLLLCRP

Q: B1 was tested. Which pKd did it give?
A: below the threshold

Q: Which pKd does the source give for B2 here?
A: below the threshold

target: GRID2IP_2, A4D2P6; experiment: holdup assay; set-up: key: below the threshold = too weak to quantify, mostly under pKd 3.1 to 4; conditions: plain residues with an end cap or a label only (N-terminal biotin on a linker: ado-ado)
Sequence (A4D2P6 272-370): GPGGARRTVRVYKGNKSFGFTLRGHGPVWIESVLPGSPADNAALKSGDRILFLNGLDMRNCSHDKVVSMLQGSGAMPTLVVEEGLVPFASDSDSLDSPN

Q: How did the pKd turn out when B1 was run?
A: below the threshold

Q: With B2 as the binder, how does the pKd read?
A: 4.3

target: T5, GRIP1_3, Q9Y3R0; experiment: holdup assay; set-up: key: below the threshold = too weak to quantify, mostly under pKd 3.1 to 4; conditions: plain residues with an end cap or a label only (N-terminal biotin on a linker: ado-ado)

Q: With B1 as the binder, how does the pKd read?
A: below the threshold

Q: How did the pKd turn out when B2 was run?
A: below the threshold

target: T6, GRIP1_5, Q9Y3R0; experiment: holdup assay; set-up: key: below the threshold = too weak to quantify, mostly under pKd 3.1 to 4; conditions: plain residues with an end cap or a label only (N-terminal biotin on a linker: ado-ado)

Q: B1 was tested. Which pKd did it give?
A: below the threshold

Q: With B2 as the binder, how does the pKd read?
A: below the threshold

target: GRIP2_4, Q9C0E4; experiment: holdup assay; set-up: key: below the threshold = too weak to quantify, mostly under pKd 3.1 to 4; conditions: plain residues with an end cap or a label only (N-terminal biotin on a linker: ado-ado)
Sequence (Q9C0E4 446-548): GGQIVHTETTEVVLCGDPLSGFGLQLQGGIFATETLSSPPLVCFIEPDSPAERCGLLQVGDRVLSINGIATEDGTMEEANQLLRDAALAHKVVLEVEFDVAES

Q: With B1 as the binder, how does the pKd read?
A: below the threshold

Q: For B2, which pKd is on record?
A: below the threshold

target: GRIP2_5, Q9C0E4; experiment: holdup assay; set-up: key: below the threshold = too weak to quantify, mostly under pKd 3.1 to 4; conditions: plain residues with an end cap or a label only (N-terminal biotin on a linker: ado-ado)
Sequence (Q9C0E4 544-642): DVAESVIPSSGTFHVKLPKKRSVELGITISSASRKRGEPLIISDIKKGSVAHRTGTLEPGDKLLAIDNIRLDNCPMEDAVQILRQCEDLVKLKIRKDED

Q: B1 was tested. Which pKd did it give?
A: below the threshold

Q: B2 was tested. Which pKd did it give?
A: below the threshold

target: HTRA1, Q92743; experiment: holdup assay; set-up: key: below the threshold = too weak to quantify, mostly under pKd 3.1 to 4; conditions: plain residues with an end cap or a label only (N-terminal biotin on a linker: ado-ado)
Sequence (Q92743 360-477): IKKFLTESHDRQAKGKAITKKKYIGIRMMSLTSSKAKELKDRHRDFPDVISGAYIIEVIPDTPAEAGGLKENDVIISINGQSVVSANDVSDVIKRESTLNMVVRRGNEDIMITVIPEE

Q: With B1 as the binder, how does the pKd read?
A: below the threshold

Q: Which pKd does the source give for B2 here?
A: 3.92

target: IL16_3, Q14005; experiment: holdup assay; set-up: key: below the threshold = too weak to quantify, mostly under pKd 3.1 to 4; conditions: plain residues with an end cap or a label only (N-terminal biotin on a linker: ado-ado)
Sequence (Q14005 1107-1207): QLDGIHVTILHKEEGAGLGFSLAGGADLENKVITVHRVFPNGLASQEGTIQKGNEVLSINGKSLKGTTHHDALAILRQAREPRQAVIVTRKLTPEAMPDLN

Q: B1 was tested. Which pKd did it give?
A: below the threshold

Q: For B2, which pKd is on record?
A: below the threshold

target: Inadl_8, Q8NI35; experiment: holdup assay; set-up: key: below the threshold = too weak to quantify, mostly under pKd 3.1 to 4; conditions: plain residues with an end cap or a label only (N-terminal biotin on a linker: ado-ado)
Sequence (Q8NI35 1425-1530): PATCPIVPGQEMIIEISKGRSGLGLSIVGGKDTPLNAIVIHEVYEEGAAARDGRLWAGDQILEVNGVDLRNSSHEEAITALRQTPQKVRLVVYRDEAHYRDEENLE

Q: B1 was tested. Which pKd did it give?
A: below the threshold

Q: For B2, which pKd is on record?
A: 3.81

target: T7, LNX2_2, Q8N448; experiment: holdup assay; set-up: key: below the threshold = too weak to quantify, mostly under pKd 3.1 to 4; conditions: plain residues with an end cap or a label only (N-terminal biotin on a linker: ado-ado)

Q: B1 was tested. Which pKd did it give?
A: below the threshold

Q: How did the pKd turn out when B2 was run?
A: below the threshold

target: MAGI1_1, Q96QZ7; experiment: holdup assay; set-up: key: below the threshold = too weak to quantify, mostly under pKd 3.1 to 4; conditions: plain residues with an end cap or a label only (N-terminal biotin on a linker: ado-ado)
Sequence (Q96QZ7 1-106): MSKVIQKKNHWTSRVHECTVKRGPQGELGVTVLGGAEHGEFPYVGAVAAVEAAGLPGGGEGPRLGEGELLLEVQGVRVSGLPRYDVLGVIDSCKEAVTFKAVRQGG

Q: Which pKd does the source give for B1 here?
A: below the threshold

Q: With B2 as the binder, how does the pKd read?
A: below the threshold

target: T8, MPP2, Q14168; experiment: holdup assay; set-up: key: below the threshold = too weak to quantify, mostly under pKd 3.1 to 4; conditions: plain residues with an end cap or a label only (N-terminal biotin on a linker: ado-ado)

Q: With B1 as the binder, how does the pKd read?
A: below the threshold

Q: With B2 as the binder, how does the pKd read?
A: below the threshold

target: T9, NHERF3_1, Q5T2W1; experiment: holdup assay; set-up: key: below the threshold = too weak to quantify, mostly under pKd 3.1 to 4; conditions: plain residues with an end cap or a label only (N-terminal biotin on a linker: ado-ado)

Q: How did the pKd turn out when B1 was run?
A: 3.81

Q: For B2, which pKd is on record?
A: 4.88

target: NOS1, P29475; experiment: holdup assay; set-up: key: below the threshold = too weak to quantify, mostly under pKd 3.1 to 4; conditions: plain residues with an end cap or a label only (N-terminal biotin on a linker: ado-ado)
Sequence (P29475 9-101): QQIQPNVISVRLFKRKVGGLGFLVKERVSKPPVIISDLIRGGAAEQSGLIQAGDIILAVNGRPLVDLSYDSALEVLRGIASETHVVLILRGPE

Q: How did the pKd turn out when B1 was run?
A: 3.79

Q: How did the pKd turn out when B2 was run?
A: below the threshold

target: PDLIM1, O00151; experiment: holdup assay; set-up: key: below the threshold = too weak to quantify, mostly under pKd 3.1 to 4; conditions: plain residues with an end cap or a label only (N-terminal biotin on a linker: ado-ado)
Sequence (O00151 1-87): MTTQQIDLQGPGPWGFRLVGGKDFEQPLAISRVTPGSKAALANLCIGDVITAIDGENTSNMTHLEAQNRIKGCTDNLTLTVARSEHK

Q: For B1, which pKd is on record?
A: below the threshold

Q: Which pKd does the source give for B2 here?
A: below the threshold

target: PICK1, Q9NRD5; experiment: holdup assay; set-up: key: below the threshold = too weak to quantify, mostly under pKd 3.1 to 4; conditions: plain residues with an end cap or a label only (N-terminal biotin on a linker: ado-ado)
Sequence (Q9NRD5 17-115): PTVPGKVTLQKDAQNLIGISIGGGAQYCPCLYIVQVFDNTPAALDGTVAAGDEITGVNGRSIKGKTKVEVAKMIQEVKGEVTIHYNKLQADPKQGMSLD

Q: How did the pKd turn out when B1 was run?
A: below the threshold

Q: B2 was tested. Which pKd did it give?
A: 3.91

target: T10, RHPN1, Q8TCX5; experiment: holdup assay; set-up: key: below the threshold = too weak to quantify, mostly under pKd 3.1 to 4; conditions: plain residues with an end cap or a label only (N-terminal biotin on a linker: ado-ado)

Q: B1 was tested. Which pKd did it give?
A: 4.01

Q: With B2 as the binder, how does the pKd read?
A: 4.57

target: SNX27, Q96L92; experiment: holdup assay; set-up: key: below the threshold = too weak to quantify, mostly under pKd 3.1 to 4; conditions: plain residues with an end cap or a label only (N-terminal biotin on a linker: ado-ado)

Q: How did the pKd turn out when B1 was run?
A: 4.4

Q: For B2, which pKd is on record?
A: 5.41

target: T11, SYNJ2BP, P57105; experiment: holdup assay; set-up: key: below the threshold = too weak to quantify, mostly under pKd 3.1 to 4; conditions: plain residues with an end cap or a label only (N-terminal biotin on a linker: ado-ado)

Q: How did the pKd turn out when B1 was run?
A: 4.52

Q: B2 was tested. Which pKd did it give?
A: 5.2

target: T12, TIAM2, Q8IVF5; experiment: holdup assay; set-up: key: below the threshold = too weak to quantify, mostly under pKd 3.1 to 4; conditions: plain residues with an end cap or a label only (N-terminal biotin on a linker: ado-ado)

Q: For B1, which pKd is on record?
A: below the threshold

Q: B2 was tested. Which pKd did it give?
A: 3.97
